{
  "source": "patent US10227575B2",
  "about": "“Multi-domain enzymes having cutinase activity, compositions comprising same and uses thereof” (OZYMES, priority 2015, dated 2019)",
  "molecules": {"B1": {"name": "KrCUT: mature Kineococcus radiotolerans cutinase, amino acids 34-294 of SEQ ID NO: 1; SEQ ID NO: 6 (protein)", "chain": "ATCSDVDVVFARGTGETPGLGVVGGPFVRSLTGELSDRTVTSHAVDYAASSSQASAGPGATAMSAHVREVAAACPSTRFVLGGYSQGATVTDIALGIRTGTTTGTPVPAELAGRVAAVVVFGNPLGLSGRTIATASSTYGPKSKDYCNSSDSVCGSAPKTGTGGHLSYASNGSTTDGARFAAGLVRAAGTPTTPTPTPTPTPVPTTCVRDSTRDHVAADRAVSLYGRAYARGSRDSLGATSSYNVVSLQQVEGGWRLVTAC", "modifications": "Kineococcus radiotolerans; (1)..(261) KrCUT (lacking residues 1-33 of ssKrCUT)"}},
  "key": {"[1]": {"experiment": "Stability of KrCUT in stabilisation buffer", "assay_type": "physicochemical", "description": "For stability testing, culture medium showing KrCUT activity, and containing 100 mg total protein was used. Stabilisation buffer composed of sodium gluconate 1-5%, sodium carbonate 1-5%, sodium citrate 1-5% and propylene glycol 1-5% was prepared; 50 mL enzyme solution was added to 200 mL of buffer and stored at room temperature, after mixing. Samples were taken at defined time periods and the enzymatic activity was measured using p-nitrophenyl dodecanoate as substrate."}, "[2]": {"experiment": "Pectin release from hemp fibre (TBA method)", "description": "Hemp fibres (German variety, 150 mg) were treated with either pectate lyase (PL, 10 U) or PL combined with various amounts of KrCUT (40, 60 and 100 U). Control experiments containing no enzyme or 100 U of KrCUT were conducted for comparison. After incubation at 37° C., aliquots of the reaction mixture were taken at 1 h 30 min and 3 h, and analyzed for pectin degradation products using the thio-barbituric acid (TBA) method (52) which detects released unsaturated compounds spectrophotometrically at 550 nm.\nThe quantity of pectin released from natural hemp fibre by KrCUT in conjunction with the action of a thermostable pectate lyase was assessed as described in Example 1, section 1.13. The thermostable pectate lyase alone released a certain amount of pectin as expected of the pectinolytic activity (Xiao et al., 2008)."}, "[3]": {"experiment": "Thermostability of purified KrCUT (40-60° C.)", "assay_type": "biochemical", "description": "Enzyme stability was studied over the temperature range of 40-60° C. using purified KrCUT. Aliquots were withdrawn at defined times (10, 30 and 80 min), chilled on ice, and assayed for activity against p-NP butyrate at room temperature. KrCUT appeared thermostable up to 45° C."}, "[4]": {"experiment": "Degradation of polylactic acid", "conditions": "2.5 μM; 2 Units"}},
  "data": [
    {"molecule": "B1", "values": [
      {"measurement": "initial activity present", "setting": "[1]; 9 months at room temperature", "value": "up to 65%"},
      {"measurement": "time after which activity loss could be observed", "setting": "[1]; room temperature", "value": 4, "unit": "months"},
      {"measurement": "pectin released from hemp fibre", "setting": "[2]; highest concentration, absence of pectate lyase", "value": "negligible amounts"},
      {"measurement": "pectin degradation products detected", "setting": "[2]; increasing amount of cutinase, fixed pectate lyase", "value": "higher percentage of pectin degradation products"},
      {"measurement": "thermostable up to", "setting": "[3]; 10, 30 and 80 min heat treatment", "value": "up to 45 °C"},
      {"measurement": "activity left after heat treatment", "setting": "[3]; 50° C. and above, 10 min", "value": "virtually no activity left"},
      {"measurement": "PLA degraded", "setting": "[4]", "value": "approximately 5%"}
    ]}
  ]
}
